# According to PMC8065039:
# Target: CA521^FALA (human IgG4 monoclonal antibody with the F234A/L235A mutation) (human (from human antibody transgenic mice))
# Assay: BLI
# Chain of CA521^FALA (human IgG4 monoclonal antibody with the F234A/L235A mutation) (human (from human antibody transgenic mice)) (heavy, as listed by the source, chain 1 of 2): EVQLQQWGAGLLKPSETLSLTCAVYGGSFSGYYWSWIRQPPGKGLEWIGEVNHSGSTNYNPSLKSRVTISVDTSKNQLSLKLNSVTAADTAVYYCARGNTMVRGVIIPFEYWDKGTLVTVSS
# Chain of CA521^FALA (human IgG4 monoclonal antibody with the F234A/L235A mutation) (human (from human antibody transgenic mice)) (light, as listed by the source, chain 2 of 2): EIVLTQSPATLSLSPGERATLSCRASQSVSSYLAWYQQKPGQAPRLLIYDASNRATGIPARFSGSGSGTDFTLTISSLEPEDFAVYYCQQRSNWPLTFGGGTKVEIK
substance,measurement,value
"SARS-CoV-2 RBD protein (40592-V05H, Sino Biological) (from UniProt P0DTC2) (domain or fragment)",Kd,0.698 nM
